Ends that are not written are not given here. Texas Red = Texas Red fluorescent dye
How the values were obtained:
GBM tissue = details: cited from earlier work
PTPμ biomarker = target: T1, PTPμ biomarker (Homo sapiens, UniProt P28827); assay: SBK4-TR staining of human gynecologic cancer, normal and PDX tissue (Image J quantification); type: binding
T1 construct: from tissue; host or cells: formalin-fixed, paraffin-embedded human gynecologic cancer and normal tissue, and patient-derived xenograft sections
T1 sequence (P28827 21-1452): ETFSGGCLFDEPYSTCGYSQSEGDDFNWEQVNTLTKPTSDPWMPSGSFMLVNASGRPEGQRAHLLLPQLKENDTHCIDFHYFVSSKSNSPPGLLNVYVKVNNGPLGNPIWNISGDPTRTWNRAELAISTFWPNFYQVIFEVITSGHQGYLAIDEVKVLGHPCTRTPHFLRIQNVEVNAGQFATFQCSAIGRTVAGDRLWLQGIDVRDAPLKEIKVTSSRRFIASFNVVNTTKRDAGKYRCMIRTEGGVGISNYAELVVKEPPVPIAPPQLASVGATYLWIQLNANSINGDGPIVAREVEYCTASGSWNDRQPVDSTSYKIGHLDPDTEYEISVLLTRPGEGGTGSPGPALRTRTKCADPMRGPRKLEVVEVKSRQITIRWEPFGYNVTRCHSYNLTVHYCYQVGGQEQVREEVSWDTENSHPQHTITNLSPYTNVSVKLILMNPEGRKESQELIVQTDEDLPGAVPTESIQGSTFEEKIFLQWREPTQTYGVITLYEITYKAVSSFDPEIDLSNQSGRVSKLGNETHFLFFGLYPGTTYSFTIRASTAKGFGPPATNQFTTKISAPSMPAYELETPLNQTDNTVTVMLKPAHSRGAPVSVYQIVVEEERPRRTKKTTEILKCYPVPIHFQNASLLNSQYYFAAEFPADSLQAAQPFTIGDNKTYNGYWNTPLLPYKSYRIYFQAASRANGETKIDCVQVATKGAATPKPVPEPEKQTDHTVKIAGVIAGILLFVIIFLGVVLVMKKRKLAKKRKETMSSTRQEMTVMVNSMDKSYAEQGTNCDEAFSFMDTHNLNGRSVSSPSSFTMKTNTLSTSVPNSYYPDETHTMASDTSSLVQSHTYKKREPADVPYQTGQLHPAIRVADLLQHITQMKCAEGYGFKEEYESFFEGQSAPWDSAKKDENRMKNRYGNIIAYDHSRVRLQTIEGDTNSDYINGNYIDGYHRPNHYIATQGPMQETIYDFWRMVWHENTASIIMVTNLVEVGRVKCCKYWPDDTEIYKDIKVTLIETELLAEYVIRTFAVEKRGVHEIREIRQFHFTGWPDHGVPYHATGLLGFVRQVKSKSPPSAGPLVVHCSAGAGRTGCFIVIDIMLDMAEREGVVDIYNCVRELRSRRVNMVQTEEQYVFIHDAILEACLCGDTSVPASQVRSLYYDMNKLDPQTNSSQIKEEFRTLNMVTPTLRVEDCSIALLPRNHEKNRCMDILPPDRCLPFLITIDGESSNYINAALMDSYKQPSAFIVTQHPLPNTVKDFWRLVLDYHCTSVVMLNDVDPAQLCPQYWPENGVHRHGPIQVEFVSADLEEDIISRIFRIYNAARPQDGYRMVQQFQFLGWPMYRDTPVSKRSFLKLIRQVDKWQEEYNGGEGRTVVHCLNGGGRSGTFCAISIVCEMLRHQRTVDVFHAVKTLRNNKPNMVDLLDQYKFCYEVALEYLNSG
Source text: The SBK4 peptide used for tissue staining was synthesized as described. The N-terminal glycine of SBK4 peptide was coupled to Texas Red (TR; Molecular Probes Inc, Eugene, Oreg., USA) as described to make the fluorescent agent. Anti-p53 Monoclonal or Ki-67 antibodies were used to counterstain tissue sections, to indicate nuclear staining of p53 typical in high-grade serous ovarian carcinoma.
All samples used for this study were obtained from the Difeo and Avril labs. The Avril group generated tissue microarrays of several gynecologic cancers (TMAs) to facilitate screening a large number of patient biopsy tissues. The Difeo lab generated TMAs that included sections from patient derived xenografts (PDXs) matched to original patient tumor tissue sections. Additional individual biopsy and normal tissue samples were stained as individual slides. Together, these TMAs and slides represented samples from 73 patients (49 with gynecologic cancer, 22 sections from patients without cancer, and 2 patients with gynecologic cancer tissue and control tissue samples collected). The following gynecologic cancer types were represented in the dataset: endometrial clear cell carcinoma (n=3), endometrial endometrioid carcinoma (n=18), endometrial high-grade serous carcinoma (n =6), endometrial leiomyosarcoma (n=1), endometrial undifferentiated carcinoma (n=1), endometrial undifferentiated sarcoma (n=1), neuroendocrine tumor of the uterus (small cell) (n=1), ovarian carcinosarcoma (n=1), ovarian borderline serous (n=1), ovarian high-grade villoglandular carcinoma (n=1), ovarian high-grade serous carcinoma (n=16), ovarian endometrioid carcinoma (n=1).
Tissue staining with SBK4-TR was described. Positive controls (GBM) and negative controls (Epilepsy) were tested with the TMAs or individual slides. Tumor samples were obtained formalin-fixed and paraffin-embedded. Prior to staining, the TMAs or slides were deparaffinized and blocked with 2% goat serum in phosphate buffered saline (PBS) for 20 min at room temperature (RT). The samples were then incubated with SBK4-TR agent diluted in 2% goat serum in PBS at RT for 1 hr in the dark. Following a PBS rinse, the TMAs or slides were coverslipped with Vectashield Hard Set Mounting Medium (Vector Laboratories, Inc., Burlingame, Calif., USA) and imaged on a Hamamatsu Nanozoomer S60 slide scanner (Bridgewater, N.J., USA). Some samples were also stained for the IDH1 mutation. Tissue staining for both PTPμ was quantified using Image J.

[1] = target: T2, proteolytically cleaved extracellular fragments of PTPμ (Homo sapiens, UniProt P28827); assay: SBK4-TR staining of human glioma tissue microarrays and slides; type: binding
T2 construct: from tissue; host or cells: formalin-fixed, paraffin-embedded human glioma patient tumor tissue (TMAs and slides)
T2 sequence (P28827 21-742 limits assumed): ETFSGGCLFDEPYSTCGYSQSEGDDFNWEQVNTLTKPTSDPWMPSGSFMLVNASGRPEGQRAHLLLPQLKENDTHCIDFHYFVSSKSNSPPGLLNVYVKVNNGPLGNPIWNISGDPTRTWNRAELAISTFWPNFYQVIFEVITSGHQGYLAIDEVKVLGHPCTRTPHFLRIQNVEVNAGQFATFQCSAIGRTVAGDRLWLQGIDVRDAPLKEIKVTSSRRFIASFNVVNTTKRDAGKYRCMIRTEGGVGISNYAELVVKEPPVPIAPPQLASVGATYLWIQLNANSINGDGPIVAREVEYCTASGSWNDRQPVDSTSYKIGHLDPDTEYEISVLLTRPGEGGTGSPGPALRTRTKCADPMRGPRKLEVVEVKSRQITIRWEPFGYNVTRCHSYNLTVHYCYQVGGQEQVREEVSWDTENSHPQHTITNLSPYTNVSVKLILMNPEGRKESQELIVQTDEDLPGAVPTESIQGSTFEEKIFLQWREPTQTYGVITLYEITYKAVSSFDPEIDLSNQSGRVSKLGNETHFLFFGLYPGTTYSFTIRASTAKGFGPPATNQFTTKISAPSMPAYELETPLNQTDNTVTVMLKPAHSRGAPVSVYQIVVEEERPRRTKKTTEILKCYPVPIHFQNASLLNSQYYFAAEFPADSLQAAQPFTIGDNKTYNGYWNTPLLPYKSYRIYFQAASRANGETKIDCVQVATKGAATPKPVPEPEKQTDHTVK
Source text: The SBK4 peptide used for immunohistochemistry was synthesized as described. The N-terminal glycine of SBK4 peptide was coupled to Texas Red (TR; Molecular Probes Inc, Eugene Oreg.) as described to make the fluorescent agent. Anti-IDH1 R132H Monoclonal Antibody clone H09 (American Research Products [Dianova GmbH], Waltham, Mass.) reacts specifically with the isocitrate dehydrogenase 1 (IDH1) R132H point mutation in tissue sections from formalin-fixed brain tumor specimens.
Patient tumor samples were obtained, formalin-fixed, and paraffin-embedded for analysis. Some samples were incorporated into tissue microarrays (TMAs) and some samples were placed on individual slides. Together, these TMAs and slides represented samples from 94 glioma patients (25 adolescent and young adult and 69 adult) with astrocytomas (n=12), oligodendroglioma (n=14), oligoastrocytoma (n=7), and GBM (n=61). Tissue staining with SBK4-TR has been described. […] Antibody binding was detected using MACH4 horseradish peroxidase (Biocare, Pacheco, Calif.) and diaminobenzidine was used as chromogenic substrate. […]
Tissue staining intensity for both PTPμ and IDH1 biomarkers was quantified by blinded observers. […] For IDH1, samples were scored as either positive for the mutation or negative as it is done clinically.

| staining observed within the TMAs (PTPμ biomarker; gynecologic cancer TMAs) | PTPμ staining of the tumor samples ([1]; formalin-fixed paraffin-embedded glioma samples, fluorescent microscope) | Compound | labeling the dispersive GBM tumor border (GBM tissue; in vivo) | six month progression-free survival (GBM tissue; surgical resection of GBM) | extent of tumor resection (GBM tissue; surgical resection of GBM, versus 36% with white light alone) [%] | SBK4-TR staining of tumor tissue compared to control tissue (PTPμ biomarker; endometrial endometrioid cancer, high-grade serous endometrial carcinoma, endometrial clear cell carcinoma, small sample sizes) | SBK4-TR labeling of tumor tissue compared to normal tissue (PTPμ biomarker; high-grade serous ovarian carcinoma vs normal ovary or normal fallopian tube) | SBK4-TR labeling of PDX tissue compared to original patient tumor tissue (PTPμ biomarker; matched patient tumor and PDX tumors, all samples) | correspondence of sites of high SBK4-TR labeling with p53 and Ki-67 staining (PTPμ biomarker; patient with multiple lesions) | labeling of glioma tissue by grade ([1]; low- and high-grade glioma tissue) |
| --- | --- | --- | --- | --- | --- | --- | --- | --- | --- | --- |
| – | – | NCC(=O)CCC(=O)O [5-ALA, 5-aminolevulinic acid] | less effective | improvement | 65 | – | – | – | – | – |
| varied amongst individual patients | variable PTPμ staining | SBK4-TR: SBK4 peptide (SEQ ID NO: 7) conjugated to Texas Red ({Texas Red}-GIDVRDAPLKEIKVTSSR) | – | – | – | did not have statistically significantly higher SBK4-TR staining than control tissue | statistically significantly higher staining | PDX tissue had higher levels of SBK4-TR labeling than the original patient tumor tissue | correspond to areas of high p53 and Ki-67 staining | labels both low- and high-grade glioma tissue |
